The test concerns the target Mature human IL-6 (human) (UniProt P05231). In words: cell-based or functional assay.

Chain of Mature human IL-6 (human) (P05231 30-212): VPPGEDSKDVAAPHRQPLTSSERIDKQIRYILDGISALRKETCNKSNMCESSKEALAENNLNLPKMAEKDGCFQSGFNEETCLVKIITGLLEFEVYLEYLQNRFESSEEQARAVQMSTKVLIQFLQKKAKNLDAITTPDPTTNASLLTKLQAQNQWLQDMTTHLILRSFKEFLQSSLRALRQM

B1: Antibody 14 scFv (scFv, part only; not given: scFv linker, part only)
scFv, part: EVQLVQSGGGLIQPGGSLRLSCAASGFTISSNYMIWVRQAPGKGLEWVSDLYYYAGDTYYADSVKGRFTMSRDISKNTVYLQMNSLRAEDTGVYYCARWADDHNYPHIDVWGRGTLVTVSSDIVMTQSPSTLSASVGDRVTITCRASQGISSWLAWYQQKPGRAPKVLIYKASTLESGVPSRFSGSGSGTDFTLTISSLQPEDFATYYCAAHYAAPWTFGQGTKLEIKR
Molecule B1 gave an IC50, TF-1 cell proliferation assay of 0.448 nM.

B2: Antibody 22 scFv (scFv, part only; not given: scFv linker, part only)
scFv, part: EVQLVQSGGGLIQPGGSLRLSCAASGFTISSNYMIWVRQAPGKGLEWVSDLYYYAGDTYYADSVKGRFTMSRDISKNTVYLQMNSLRAEDTGVYYCARWADDHNNTYIDVWGRGTLVTVSSDIVMTQSPSTLSASVGDRVTITCRASQGISSWLAWYQQKPGRAPKVLIYKASTLESGVPSRFSGSGSGTDFTLTISSLQPEDFATYYCAAHYAAPWTFGQGTKLEIKR
In turn, B2 came in with an IC50, TF-1 cell proliferation assay of 0.041 nM.

B3: Antibody 8 scFv (scFv, part only; not given: scFv linker, part only)
scFv, part: EVQLVQSGGGLIQPGGSLRLSCAASGFTISSNYMIWVRQAPGKGLEWVSDLYYYAGDTYYADSVKGRFTMSRDISKNTVYLQMNSLRAEDTGVYYCARWADDHPRYIDHWGRGTLVTVSSDIVMTQSPSTLSASVGDRVTITCRASQGISSWLAWYQQKPGRAPKVLIYKASTLESGVPSRFSGSGSGTDFTLTISSLQPEDFATYYCQQSWLGGSFGQGTKLEIKR
In the case of B3, the IC50, TF-1 cell proliferation assay is 0.419 nM.

B4: Antibody 21 scFv (scFv, part only; not given: scFv linker, part only)
scFv, part: EVQLVQSGGGLIQPGGSLRLSCAASGFTISSNYMIWVRQAPGKGLEWVSDLYYYAGDTYYADSVKGRFTMSRDISKNTVYLQMNSLRAEDTGVYYCARWADDHPSHIDVWGRGTLVTVSSDIVMTQSPSTLSASVGDRVTITCRASQGISSWLAWYQQKPGRAPKVLIYKASTLESGVPSRFSGSGSGTDFTLTISSLQPEDFATYYCQQSWLGGSFGQGTKLEIKR
With B4, the IC50, TF-1 cell proliferation assay came out at 0.042 nM.

B5: CNTO-328 (antibody, INN chains, looked up, V domains shown)
VH: EVQLVESGGKLLKPGGSLKLSCAASGFTFSSFAMSWFRQSPEKRLEWVAEISSGGSYTYYPDTVTGRFTISRDNAKNTLYLEMSSLRSEDTAMYYCARGLWGYYALDYWGQGTSVTVSS
VL: QIVLIQSPAIMSASPGEKVTMTCSASSSVSYMYWYQQKPGSSPRLLIYDTSNLASGVPVRFSGSGSGTSYSLTISRMEAEDAATYYCQQWSGYPYTFGGGTKLEIK
B5 registered an IC50, IL-6 induced TF-1 cell proliferation assay of 0.101 nM; an IC50, TF-1 cell proliferation assay of 0.074 nM; an IC50, endogenous IL-6 induced synovial fibroblast VEGF release assay of 1.31 nM.

The values are drawn from patent publication US20150197568A1.
